Data on 3 variants can be found in paper PMC8024323, “Drosophila TNFRs Grindelwald and Wengen bind Eiger with different affinities and promote distinct cellular functions” (Nature Communications, 2021).

As usually defined, the Kd is a measure of binding affinity in units of concentration.

B1: Grnd^30–97 (extracellular domain of Grindelwald) [Drosophila melanogaster] / Egr^146–409 (extracellular portion of Eiger, His6-tagged) [Drosophila melanogaster] (parent complex)
chain 1: GESRDCHGTICHPVNEFCYVATERCHPCIEVCNNQTHNYDAFLCAKECSAYKTFEPLKAEMLDIQNTQ
chain 2: GADYEDYTDMLNKLNNAHTGTTPTSETTAEGEGETDSASSASNDDNVFDDFTSYNAHKKKQERKSRSIADVRNEEQNIQGNHTELQEKSSNEATSKESPAPLHHRRRMHSRHRHLLVRKARSEDSRPAAHFHLSSRRRHQGSMGYHGDMYIGNDNERNSYQGHFQTRDGVLTVTNTGLYYVYAQICYNNSHDQNGFIVFQGDTPFLQCLNTVPTNMPHKVHTCHTSGLIHLERNERIHLKDIHNDRNAVLREGNNRSYFGIFKV

The variants in the assay derive from B1. The assay can be described thus: ITC; parent: 30.8 nM. For orientation: In ITC the heat of successive injections is recorded.
Regarding chain 1 H37A, the Kd turned out to be 4.8 µM.
For chain 1 N38A the value was 4.5 µM; for chain 1 E23A, 1.3 µM.
